# Experimental data published in publication PMC11694511.
# What was measured:
# [1] = molecular target: LolA from Vibrio cholerae (V. cholerae) (UniProt A5F2G9); assay: ITC
# [2] = molecular target: LolA from Porphyromonas gingivalis (P. gingivalis); assay: ITC
Substance,Kd [1] [µM],Kd [2] [µM]
polymyxin B (peptide),56,–
colistin (peptide),91,33
